The test concerns the target T1, Myc-tagged barley CslF6 (barley (Hordeum vulgare subsp. vulgare)).
T1 construct: also called Myc-tagged CslF6 species; not shown: Myc tag
T1 chain: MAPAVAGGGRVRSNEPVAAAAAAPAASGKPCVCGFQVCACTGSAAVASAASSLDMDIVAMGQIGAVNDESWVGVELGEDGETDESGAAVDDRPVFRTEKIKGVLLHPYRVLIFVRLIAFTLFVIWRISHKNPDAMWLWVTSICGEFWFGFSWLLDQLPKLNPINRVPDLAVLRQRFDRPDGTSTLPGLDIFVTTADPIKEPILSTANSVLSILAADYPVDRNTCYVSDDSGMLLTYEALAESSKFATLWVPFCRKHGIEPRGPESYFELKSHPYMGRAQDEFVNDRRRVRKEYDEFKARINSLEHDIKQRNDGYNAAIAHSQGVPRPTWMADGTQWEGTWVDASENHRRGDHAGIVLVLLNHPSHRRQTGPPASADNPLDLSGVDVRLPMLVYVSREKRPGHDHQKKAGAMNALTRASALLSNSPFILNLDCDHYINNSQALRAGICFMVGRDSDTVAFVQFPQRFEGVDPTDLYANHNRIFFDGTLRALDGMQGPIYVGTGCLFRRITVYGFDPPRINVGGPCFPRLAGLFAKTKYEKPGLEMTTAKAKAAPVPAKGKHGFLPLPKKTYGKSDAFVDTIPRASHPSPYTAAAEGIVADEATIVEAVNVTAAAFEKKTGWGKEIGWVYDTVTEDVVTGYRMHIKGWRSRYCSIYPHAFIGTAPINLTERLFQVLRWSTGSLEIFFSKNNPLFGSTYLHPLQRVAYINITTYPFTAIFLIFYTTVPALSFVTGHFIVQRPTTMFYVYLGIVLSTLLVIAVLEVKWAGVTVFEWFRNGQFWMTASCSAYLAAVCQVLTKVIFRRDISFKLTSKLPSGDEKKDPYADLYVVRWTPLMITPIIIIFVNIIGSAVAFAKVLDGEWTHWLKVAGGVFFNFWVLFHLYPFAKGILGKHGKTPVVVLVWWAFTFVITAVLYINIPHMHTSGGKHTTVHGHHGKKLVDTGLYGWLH
Nature of the test: co-purification of His- and Myc-tagged CslF6.

B1: barley (Hordeum vulgare) cellulose synthase-like CslF6 with N-terminal 12xHis tag (enzyme)
chain: T1 chain
notes: Expressed in Sf9 insect cells and purified in detergent (LMNG/CHS, then GDN); also called HvCslF6; His-tagged CslF6; not shown: N-terminal 12xHis tag
For the molecule B1, the binding result is given as “no binding”.

For the origin of these results see US20250375497A1 (UNIVERSITY OF VIRGINIA PATENT FOUNDATION, published 2025).
